Reference: patent publication US20200199241A1 (Chugai, published 2020)
Changes are numbered by the printed parent chain. In names and notes the source's numbering stands.

T1: human FcγRIIb (human, UniProt P31994 43-217, limits assumed)
T1 construct: also called FcγIIB
T1 sequence: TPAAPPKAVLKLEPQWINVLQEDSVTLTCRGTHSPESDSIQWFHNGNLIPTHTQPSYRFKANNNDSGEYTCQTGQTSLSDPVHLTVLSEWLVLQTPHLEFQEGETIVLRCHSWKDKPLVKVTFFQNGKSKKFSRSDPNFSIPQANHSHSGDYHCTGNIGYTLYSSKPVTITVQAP

T2: human FcγRIIa type R (human, UniProt P12318 36-217)
T2 construct: also called FcγRIIaR; FcγRIIa(R)
T2 chain: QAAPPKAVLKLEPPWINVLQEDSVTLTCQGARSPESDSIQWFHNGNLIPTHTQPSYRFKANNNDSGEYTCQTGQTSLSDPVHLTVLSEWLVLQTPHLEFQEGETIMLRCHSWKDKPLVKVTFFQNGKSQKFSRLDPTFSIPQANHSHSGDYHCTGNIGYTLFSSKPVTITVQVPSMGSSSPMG

T3: human FcγRIIb (human, UniProt P31994 43-217, limits assumed)
T3 construct: also called hFcgRIIb; FcγIIB
T3 sequence: T1 sequence

T4: human FcγRIIa(R) (human, UniProt P12318 36-217)
T4 construct: also called hFcgRIIa(R); FcγRIIa type R
T4 chain: T2 chain

T5: human FcγRIIa(H) (human, UniProt P12318 36-217)
T5 construct: also called hFcgRIIa(H); FcγRIIa type H
T5 sequence: T2 chain with R133H

B1: IL6R-PD094/IL6R-L (antibody, human IgG1)
heavy: QVQLQESGPGLVKPSETLSLTCAVSGHSISHDHAWSWVRQPPGEGLEWIGFISYSGITNYNPSLQGRVTISRDNSKNTLYLQMNSLRAEDTAVYYCARSLARTTAMDYWGEGTLVTVSSASTKGPSVFPLAPSSKSTSGGTAALGCLVKDYFPEPVTVSWNSGALTSGVHTFPAVLQSSGLYSLSSVVTVPSSSLGTQTYICNVNHKPSNTKVDKKVEPKSCDKTHTCPPCPAPELLGWDSVFLFPPKPKDTLYISRTPEVTCVVVDVSHEDPEVKFNWYVDGVEVHNAKTKPREEQYNSTYRVVSVLTVLHQDWLNGKEYKCKVSNKALPAPIEKTISKAKGQPREPQVYTLPPSRDELTKNQVSLTCLVKGFYPSDIAVEWESNGQPENNYKTTPPVLDSDGSFFLYSKLTVDKSRWQQGNVFSCSVMHEALHYHYTQKSLSLSP
light: DIQMTQSPSSLSASVGDRVTITCRASQDISSYLNWYQQKPGKAPKLLIYYTSRLHSGVPSRFSGSGSGTDFTFTISSLQPEDIATYYCQQGNTLPYTFGQGTKVEIK
notes: Alteration introduced into IL6R-F11; also called P238D/G237W; G237W/P238D
B2: IL6R-PD095/IL6R-L (antibody, human IgG1)
heavy: B1 heavy with W239Y
light: B1 light
notes: Alteration introduced into IL6R-F11; also called P238D/G237Y; G237Y/P238D
B3: IL6R-PD042/IL6R-L (antibody, human IgG1)
heavy: B1 heavy with L236W, W239G
light: B1 light
notes: Alteration introduced into IL6R-F11; also called P238D/L234W; L234W/P238D
B4: IL6R-PD081/IL6R-L (antibody, human IgG1)
heavy: B1 heavy with W239E
light: B1 light
notes: Alteration introduced into IL6R-F11; also called P238D/G237E; G237E/P238D
B5: IL6R-PD082/IL6R-L (antibody, human IgG1)
heavy: B1 heavy with W239F
light: B1 light
notes: Alteration introduced into IL6R-F11; also called P238D/G237F; G237F/P238D
B6: IL6R-PD087/IL6R-L (antibody, human IgG1)
heavy: B1 heavy with W239M
light: B1 light
notes: Alteration introduced into IL6R-F11; also called P238D/G237M; G237M/P238D
B7: IL6R-PD043/IL6R-L (antibody, human IgG1)
heavy: B1 heavy with L236Y, W239G
light: B1 light
notes: Alteration introduced into IL6R-F11; also called P238D/L234Y; L234Y/P238D
B8: IL6R-PD079/IL6R-L (antibody, human IgG1)
heavy: B1 heavy with W239A
light: B1 light
notes: Alteration introduced into IL6R-F11; also called P238D/G237A; G237A/P238D
B9: IL6R-PD086/IL6R-L (antibody, human IgG1)
heavy: B1 heavy with W239L
light: B1 light
notes: Alteration introduced into IL6R-F11; also called P238D/G237L; G237L/P238D
B10: IL6R-PD080/IL6R-L (antibody)
chain 1: B1 heavy with W239D
chain 2: not shown
B11: antibody with VH3-IgG1-F938 heavy chain and L(WT)-CK light chain (antibody)
heavy: B1 heavy with L237K, W239G, D240P, S241K, Y438V
light: not shown
notes: L235K/S239K on VH3-IgG1-F890; copies: 2 + 2
B12: antibody with VH3-IgG1-F1315 heavy chain and L(WT)-CK light chain (antibody)
heavy: B1 heavy with W239K, D240P, S241K, Y438V
light: not shown
notes: G237K/S239K on VH3-IgG1-F890; copies: 2 + 2
B13: antibody with VH3-IgG1-F1318 heavy chain and L(WT)-CK light chain (antibody)
heavy: B1 heavy with W239G, D240P, S241K, P331R, Y438V
light: not shown
notes: S239K/P329R on VH3-IgG1-F890; copies: 2 + 2
B14: antibody with VH3-IgG1-F1316 heavy chain and L(WT)-CK light chain (antibody)
heavy: B1 heavy with W239R, D240P, S241K, Y438V
light: not shown
notes: G237R/S239K on VH3-IgG1-F890; copies: 2 + 2
B15: antibody with VH3-IgG1-F1333 heavy chain and L(WT)-CK light chain (antibody)
heavy: B1 heavy with L237R, G238R, W239G, D240P, S241K, Y438V
light: not shown
notes: L235R/G236R/S239K on VH3-IgG1-F890; copies: 2 + 2
B16: antibody with VH3-IgG1-F1356 heavy chain and L(WT)-CK light chain (antibody)
heavy: B1 heavy with G238R, W239G, D240P, L330R, Y438V
light: not shown
notes: G236R/L328R on VH3-IgG1-F890; copies: 2 + 2
B17: antibody with VH3-IgG1-F1317 heavy chain and L(WT)-CK light chain (antibody)
heavy: B1 heavy with W239G, D240P, S241K, P331K, Y438V
light: not shown
notes: S239K/P329K on VH3-IgG1-F890; copies: 2 + 2
B18: antibody with VH3-IgG1-F1325 heavy chain and L(WT)-CK light chain (antibody)
heavy: B1 heavy with L236A, L237A, W239G, D240P, N299A, Y438V
light: not shown
notes: L234A/L235A/N297A on VH3-IgG1-F890; copies: 2 + 2
B19: IL6R-F652/IL6R-L (antibody, human IgG1)
heavy: B1 heavy with W239G
light: B1 light
notes: IL6R-F11 with P238D (EU numbering)

The binders below were run against T1, human FcγRIIb (assay: SPR (Biacore); KD for FcγRIIaR divided by KD for FcγRIIb of the same antibody).

| KD(IIaR)/KD(IIb) | Binder |
| --- | --- |
| 3.1 | B1 |
| 3.4 | B2 |
| 8.1 | B3 |
| 10.6 | B4 |
| 4.1 | B5 |
| 7.7 | B6 |
| 15.9 | B7 |
| 10.5 | B8 |
| 6.9 | B9 |

Target: T2, human FcγRIIa type R
Assay: SPR (Biacore), antibody captured, FcγR as analyte

| Kd | Binder |
| --- | --- |
| 21000 nM | B10 |
| 7200 nM | B1 |
| 7900 nM | B2 |
| 16000 nM | B3 |
| 38000 nM | B4 |
| 14000 nM | B5 |
| 22000 nM | B6 |
| 26000 nM | B7 |
| 32000 nM | B8 |
| 18000 nM | B9 |

These binders were tested against T6, human FcγRIa (human, UniProt P12314 16-292, limits assumed) (assay: SPR (Biacore), antibody captured, FcγR as analyte).
T6 construct: also called CD64
T6 sequence (P12314 16-292 limits assumed): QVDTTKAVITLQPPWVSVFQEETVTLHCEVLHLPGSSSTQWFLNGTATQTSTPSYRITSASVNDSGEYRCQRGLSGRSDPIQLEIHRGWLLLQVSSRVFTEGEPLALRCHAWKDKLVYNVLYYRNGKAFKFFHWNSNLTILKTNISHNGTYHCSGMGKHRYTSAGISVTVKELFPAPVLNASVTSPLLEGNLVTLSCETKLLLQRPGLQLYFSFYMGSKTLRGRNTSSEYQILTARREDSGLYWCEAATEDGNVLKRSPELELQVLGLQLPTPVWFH

| Kd | Binder |
| --- | --- |
| 36 nM | B1 |
| 93 nM | B2 |
| 63 nM | B3 |
| 340 nM | B4 |
| 52 nM | B5 |
| 52 nM | B6 |
| 75 nM | B7 |
| 140 nM | B8 |
| 120 nM | B9 |

The binders below were run against T1, human FcγRIIb (assay: SPR (Biacore), antibody captured, FcγR as analyte).

| Kd | Binder |
| --- | --- |
| 2300 nM | B1 |
| 2300 nM | B2 |
| 2000 nM | B3 |
| 3600 nM | B4 |
| 3400 nM | B5 |
| 2900 nM | B6 |
| 1600 nM | B7 |
| 3000 nM | B8 |
| 2600 nM | B9 |

The binders below were run against T3, human FcγRIIb (assay: SPR, antibody captured by Protein L, human FcγR as analyte, pH 7.4, 25 C;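 further: biacore T100 or T200 with Protein L amine-coupled on a CM4 chip, FcγRs diluted in ACES saline with polysorbate 20, buffer-only injection as blank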).
Description: (§1) Binding activity between the antibodies and human FcγRIa, FcγRIIa(H), FcγRIIa(R), FcγRIIb and FcγRIIIa(F) (hereinafter referred to as human FcγRs) was evaluated using the BIACORE™ T100 or T200 surface plasmon resonance system (GE Healthcare). The antibodies being tested were captured by Protein L (ACTIGEN® protein (Alltech)) that was immobilized in suitable amounts on the CM4 Sensor Chip (GE Healthcare) by amine coupling. Next, the diluted human FcγRs and a running buffer used as a blank were injected to allow interaction with the antibodies captured on the sensor chip. A buffer consisting of 20 mmol/L N-(2-acetamido)-2-aminoethanesulfonic acid (ACES), 150 mmol/L NaCl and 0.05% (w/v) polysorbate 20 (Tween 20®) (pH 7.4) was used for the running buffer, and this buffer was also used to dilute the human FcγRs. 10 mmol/L glycine-HCl (pH 1.5) was used to regenerate the sensor chip. All measurements were carried out at 25° C.

| BINDING AMOUNT (RU) | Binder |
| --- | --- |
| -0.14 RU | B11 |
| 0.63 RU | B12 |
| 0.26 RU | B13 |
| -0.44 RU | B14 |
| -0.2 RU | B15 |
| 0.63 RU | B16 |
| -0.23 RU | B17 |
| 1.46 RU | B18 |

Target: T4, human FcγRIIa(R)
Assay: as above
Description: as §1

| BINDING AMOUNT (RU) | Binder |
| --- | --- |
| -0.12 RU | B11 |
| -1.14 RU | B12 |
| -1.59 RU | B13 |
| -0.33 RU | B14 |
| -0.15 RU | B15 |
| -0.23 RU | B16 |
| -1.48 RU | B17 |
| -1.17 RU | B18 |

Each binder was assayed against T7, human FcγRIa (human, UniProt P12314 16-292, limits assumed) in the same assay as above.
T7 construct: also called hFcgRIa; hFcgRI
T7 sequence (P12314 16-292 limits assumed): as above
Description: as §1

| BINDING AMOUNT (RU) | Binder |
| --- | --- |
| -0.49 RU | B11 |
| -2.71 RU | B12 |
| -0.31 RU | B13 |
| -0.12 RU | B14 |
| -0.35 RU | B15 |
| -0.9 RU | B16 |
| -1.46 RU | B17 |
| -0.47 RU | B18 |

The binders below were run against T8, human FcγRIIIa(V) (human, UniProt P08637 17-208, limits assumed) in the same assay as above.
T8 construct: also called hFcgRIIIa(V); allotype V158
T8 sequence (P08637 other isoform, or with tags, fused parts or gaps limits assumed): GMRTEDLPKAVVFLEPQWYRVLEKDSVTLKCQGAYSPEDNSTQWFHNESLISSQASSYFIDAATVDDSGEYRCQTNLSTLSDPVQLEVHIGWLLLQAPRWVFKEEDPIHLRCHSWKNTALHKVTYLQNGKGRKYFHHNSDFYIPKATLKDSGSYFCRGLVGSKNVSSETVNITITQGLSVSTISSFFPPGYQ
Description: as §1

| BINDING AMOUNT (RU) | Binder |
| --- | --- |
| 1.2 RU | B11 |
| -2.69 RU | B12 |
| -3.63 RU | B13 |
| -0.42 RU | B14 |
| -1.42 RU | B15 |
| 0.09 RU | B16 |
| -2.76 RU | B17 |
| -2.4 RU | B18 |

Each binder was assayed against T5, human FcγRIIa(H) in the same assay as above.
Description: as §1

| BINDING AMOUNT (RU) | Binder |
| --- | --- |
| -0.05 RU | B11 |
| -1.37 RU | B12 |
| -1.12 RU | B13 |
| -0.34 RU | B14 |
| -0.56 RU | B15 |
| -0.22 RU | B16 |
| -0.76 RU | B17 |
| -0.62 RU | B18 |

Each binder was assayed against T1, human FcγRIIb (assay: SPR (Biacore); KD for FcγRIIaH divided by KD for FcγRIIb of the same antibody).

| KD(IIaH)/KD(IIb) | Binder |
| --- | --- |
| 5.2 | B1 |
| 6.4 | B2 |
| 9.5 | B3 |
| 7 | B4 |
| 4.7 | B5 |
| 7 | B6 |
| 14.4 | B7 |
| 7 | B8 |
| 7.1 | B9 |

The binders below were run against T1, human FcγRIIb (assay: SPR (Biacore); ratio against parent IL6R-F11/IL6R-L).

| KD(IIb) of parent polypeptide/KD(IIb) of altered polypeptide | Binder |
| --- | --- |
| 2.9 | B1 |
| 2.9 | B2 |
| 3.4 | B3 |
| 1.9 | B4 |
| 2 | B5 |
| 2.4 | B6 |
| 4.2 | B7 |
| 2.3 | B8 |
| 2.7 | B9 |

Target: T2, human FcγRIIa type R
Assay: SPR (Biacore), binding amount relative to IL6R-F652/IL6R-L = 100

| relative binding activity | Binder |
| --- | --- |
| 593 | B1 |
| 543 | B2 |
| 100 | B19 |
| 240 | B3 |
| 117 | B4 |
| 380 | B5 |
| 196 | B6 |
| 175 | B7 |
| 138 | B8 |
| 268 | B9 |

What follows are binders tested against T1, human FcγRIIb in the same assay as above.

| relative binding activity | Binder |
| --- | --- |
| 122 | B1 |
| 124 | B2 |
| 100 | B19 |
| 106 | B3 |
| 101 | B4 |
| 108 | B5 |
| 109 | B6 |
| 112 | B7 |
| 101 | B8 |
| 112 | B9 |
